Experimental data published in patent publication US20220348665A1.

Key:
[1] = target: human IGF1R, endogenous, on the surface of breast cancer cell lines (MCF-7, JIMT-1, BT474) (human) (UniProt P08069); experiment: FACS on MCF-7 cells (FL1-H), anti-human FITC; same table: Untreated 2.51, 2nd Ab only 4.53
[2] = target: human IGF1R, endogenous, on the surface of breast cancer cell lines (MCF-7, JIMT-1, BT474) (human) (UniProt P08069); experiment: FACS on BT474 cells (FL1-H), anti-human FITC; same table: Untreated 1.8, 2nd Ab only 1.93
[3] = target: human IGF1R, endogenous, on the surface of breast cancer cell lines (MCF-7, JIMT-1, BT474) (human) (UniProt P08069); experiment: FACS on JIMT-1 cells (FL1-H), anti-human FITC; same table: Untreated 1.36, 2nd Ab only 1.89

Sequence of IMC-A12 (antibody) (VH): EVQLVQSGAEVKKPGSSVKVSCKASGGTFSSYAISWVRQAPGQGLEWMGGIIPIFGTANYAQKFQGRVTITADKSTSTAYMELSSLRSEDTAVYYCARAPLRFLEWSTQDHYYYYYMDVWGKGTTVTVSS
Sequence of IMC-A12 (antibody) (VL): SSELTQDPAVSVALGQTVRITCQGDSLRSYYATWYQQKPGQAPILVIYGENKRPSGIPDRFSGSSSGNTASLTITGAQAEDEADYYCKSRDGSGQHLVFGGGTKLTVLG

MFI [1]: 40.1
MFI [2]: 18.3
MFI [3]: 23
Substance: IMC-A12 (antibody)
